Laboratory results: patent US20110263459, “DIRECT SELECTION OF STRUCTURALLY DEFINED APTAMERS” (published 2011)

Experiments:
[1] = molecular target: HIV-1 nucleocapsid protein NCp7 (HIV-1) (UniProt P03349); conditions: Cy3-NCp7 microarray; 3.5x background (AUA)
[2] = molecular target: T1, HIV-1 nucleocapsid protein NCp7 (HIV-1, UniProt P03349 P03349:380-434); assay: Trp37 fluorescence quenching, PBS pH 7.4, 0.1% Tween-20, 5 mM MgCl2, 25 C; 1:1; conditions: tags: unlabelled for Trp titration; Cy3/Dylight-labelled for chips; made in house, >95% pure; hairpin
[3] = molecular target: T1, HIV-1 nucleocapsid protein NCp7; assay: Trp37 fluorescence quenching, PBS, 5 mM MgCl2, 25 C; negative on chip; conditions: tags: unlabelled for Trp titration; Cy3/Dylight-labelled for chips; made in house, >95% pure; hairpin
[4] = molecular target: T1, HIV-1 nucleocapsid protein NCp7; assay: multiple NCp7 bound per TBA in Trp37 titration; positive on chip; conditions: tags: unlabelled for Trp titration; Cy3/Dylight-labelled for chips; made in house, >95% pure; G4

Q: Which binding signal (fold of GUG control) [1] does the source give for TGTNNN [N6-56(64) pool] here?
A: 1.5

Q: GGACUAGCGGUGGCUAGUCC (ssRNA) [G control (SL3-GUG)] was tested. Which Kd [2] did it give?
A: 10 nM

Q: With GGACUAGCGAUAGCUAGUCC (ssRNA) [A control (SL3-AUA)] as the molecule, how does the Kd [3] read?
A: 200 nM

Q: Does GGTTGGTGTGGTTGG (structured_DNA) [control 33 (TBA)] bind [4]?
A: binds
